Assay results from US20180258175A1 (ABLEXIS, published 2018).
Positions count from the first letter of the chain named.

B1: CCK-402A (antibody, V domains shown)
VH: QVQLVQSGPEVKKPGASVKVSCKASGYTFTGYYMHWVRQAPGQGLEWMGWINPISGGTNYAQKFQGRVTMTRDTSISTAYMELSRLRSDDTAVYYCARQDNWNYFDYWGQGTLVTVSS
VL: DIVMTQTPLSLPVTPGEPASISCRSSQSLLDSDDGNTYLDWFLQKPGQSPQLLIYTLSYRASGVPDRFSGSGSGTDFTLKISRVEADDVGVYYCMQRIEFPFTFGQGTKLEIK
notes: AlivaMab chimeric IgG, human kappa LC
B2: CCK-516A (antibody, V domains shown)
VH: not shown
VL: B1 VL with F42Y, D87E, F102L, Q106G, L110V
notes: as for B1
B3: CCK-505A (antibody, V domains shown)
VH: EVQLVESGGGLVQPGGSLRLSCAASGFTFSSYSMNWVRQAPGKGLEWVSYISSSSSTIYYADSVKGRFTISRDNAKNSLYLQMNSLRDEDTAVYYCAREGERFCGADCYPHWFDPWGQGTLVTVSS
VL: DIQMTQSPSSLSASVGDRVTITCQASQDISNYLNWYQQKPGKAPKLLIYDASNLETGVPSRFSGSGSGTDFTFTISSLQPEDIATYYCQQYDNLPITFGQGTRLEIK
notes: as for B1
B4: CCK-455A (antibody, V domains shown)
VH: EVQLVESGGGLVQPGGSLRLSCAASGFTFSSYWMHWVRQAPGKGLVWVSRINSDGSSTSYADSVKGRFTISRDNAKNTLYLQMNSLRAEDTAVYYCARDGGTTGAFDIWGQGTMVTVSS
VL: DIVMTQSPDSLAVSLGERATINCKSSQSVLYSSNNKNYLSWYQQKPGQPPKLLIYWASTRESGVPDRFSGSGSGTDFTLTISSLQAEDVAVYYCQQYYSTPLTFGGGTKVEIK
notes: as for B1
B5: CCK-511A (antibody, V domains shown)
VH: EVQVVESGGGLVQPGKSLRLSCAASGFPFSVYWMTWVRQAPGKGLEWVANIKQDGSEKYYVDSVKGRFTISRDNAKNSLYLQMNSLRAEDTAVYCCASGYHLFDYWGQGTLVTVSS
VL: not shown
notes: as for B1
B6: CCK-526A (antibody, V domains shown)
VH: B5 VH with P28T, V31T
VL: not shown
notes: as for B1
B7: CCK-542A (antibody, V domains shown)
VH: QVQLQESGPGLVKPSETLSLTCTVSGGSISSYYWSWIRQPAGKGLEWIGRIYSSGSINYNPSLKSRVTMSVDTSKNQFSLKLSSVTAADTAVFYCARDRAFYGMDVWGQGTTVTVSS
VL: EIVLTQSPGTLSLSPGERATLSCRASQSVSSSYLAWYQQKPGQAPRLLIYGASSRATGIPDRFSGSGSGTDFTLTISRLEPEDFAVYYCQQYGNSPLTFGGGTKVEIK
notes: as for B1
B8: CCK-458A (antibody, V domains shown)
VH: QITLKESGPPLVKPTQTLTLTCTFSGFSLSTSGVGVGWIRQPPGKALEWLALIYWNDDKRYSPSLKSRLTITKDTSKNQVVLTMTNMDPVDTATYYCAHSPRYSGYFDYWGQGTLVTVSS
VL: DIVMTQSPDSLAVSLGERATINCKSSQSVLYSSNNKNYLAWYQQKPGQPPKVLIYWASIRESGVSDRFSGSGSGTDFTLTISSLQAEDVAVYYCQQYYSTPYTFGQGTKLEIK
notes: as for B1
B9: CCK-461A (antibody, V domains shown)
VH: QVQLQESGPGLVKPSETLSLTCTVSGGSISSYYWTWIRQPPGKGLEWIGYISYSGGTNYNPSLKSRVTISVDTSKNQFSLKLSSVTAADTAVYYCARELGNYWGQGTLVTVSS
VL: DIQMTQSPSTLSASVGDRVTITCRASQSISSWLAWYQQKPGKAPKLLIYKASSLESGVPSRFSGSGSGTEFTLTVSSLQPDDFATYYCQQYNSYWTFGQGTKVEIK
notes: as for B1
B10: CCK-422A (antibody, V domains shown)
VH: QVQLQESGPGLVKPSETLSLTCSVSGGSISSYYWSWIRQPPGKGLEWIGYVSYSGGTNYNPSLKSRVTISVDTSKNQFSLKLSSVTAADTAVYYCARGFDYWGQGTLVTVSS
VL: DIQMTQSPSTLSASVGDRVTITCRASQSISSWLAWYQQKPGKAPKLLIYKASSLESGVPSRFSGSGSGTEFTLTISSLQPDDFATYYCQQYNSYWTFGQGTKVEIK
notes: as for B1
B11: CCK-424A (antibody, V domains shown)
VH: B10 VH with S23T, G44V, V51F, S54N, G56N, A96T, F99M, Y101V, L107T
VL: DIQMTQSPSTLSASVGDRVTITCRASQSISDWLAWYLQKPGKAPKLLIYKASSLESGVPSRFSGSGSGTAFTLTISSLQPDDFATYYCQQYNSHWTFGQGTKVEIK
notes: as for B1
B12: CCK-417A (antibody, V domains shown)
VH: QVTLRESGPALVKPTQTLTLTCTFSGFSLSTSGMCVSWIRQPPGKALECLALIDWDDDKYYSTSLKTRLTISKDTSKNQVVLTMTNMDPVDTATYYCARTQLGIADYWGQGTLVTVSS
VL: AIRMTQSPSSFSASTGDRVTITCRASQGISSYLAWYQQKPGKAPKLLIYAASTLQSGVPSRFSGSGSGTDFTLTISCLQSEDFATYYCQQYYSYPFTFGPGTKVDIK
notes: as for B1
B13: CCK-421A (antibody, V domains shown)
VH: QVQLQESGPGLVKPSETLSLTCTVTGGSISSYYWSWIRQPAGKGLEWIGRIYTSGSTNYNPSLKSRVTMSVDTSKNHFSLKLSSVTAADTAVYYCAREILVVVAATRTGGVFDIWGQGTMVTVSS
VL: B11 VL with D31S, L37Q, Q38R, S53T, A70E, Y91F, H94Y
notes: as for B1
B14: CCK-412A (antibody, V domains shown)
VH: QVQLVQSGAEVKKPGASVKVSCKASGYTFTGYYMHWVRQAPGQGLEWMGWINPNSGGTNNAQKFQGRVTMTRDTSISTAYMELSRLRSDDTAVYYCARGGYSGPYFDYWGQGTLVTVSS
VL: DIQMTQSPSSVSASVGDRVTITCRASPGISSWLAWYQQKPEKAPKLLIYAASSLQSGVPSRFSGSGSGTDFTLTISSLQPEDFATYYCQQAYSFPYTFGQGTKLEIK
notes: as for B1
B15: CCK-525A (antibody, V domains shown)
VH: QVQLVESGGGVVQPGRSLRLSCAASGFTFSSYGMHWVRQAPGKGLEWVAVIWYDGSIKYYADSVKGRFTISRDNSKNTLYLQMNSLRAEDTAVYYCARATYYYDSSGYYSNWFDPWGQGTLVTVSS
VL: B14 VL with P27Q, E41G, Y92N, S93T, Y96F, F98V, Q100P, L104V, E105D
notes: as for B1
B16: CCK-435A (antibody, V domains shown)
VH: QVQLQQWGAGLLKPSETLSLTCAVYGGSCSAYYWSWIRQPPGKGLEWIGEINHSGSTNYNPSLKSRVTISVDTSRNQFSLKLSSVTAADTAVYYCAREADAFDIWGQGTMVTVSS
VL: not shown
notes: as for B1

biological target: T1, human CD115 extracellular domain (Sino Biological 10161-H08H) (human, UniProt P07333 20-517); assay: competition ELISA, competitor TMR 20A;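 also: epitope binning by ELISA, anti-huCD115 hybridoma supernatant antibodies tested for binding to huCD115 with the competitor antibody present, loss of binding placing them in the competitor's bin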
T1 construct: extracellular domain; bought recombinant protein; also called huCD115; hu-CD115
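Also: low signal means same epitope bin as the mouse competitor antibody.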

Binder | signal vs NO COMP=100 [%]
B1 | 145
B2 | 70
B3 | 53
B4 | 58
B5 | 77
B6 | 92
B7 | 7
B8 | 22
B9 | 110
B10 | 107
B11 | 98
B12 | 110
B13 | 104
B14 | 70
B15 | 80
B16 | 85

biological target: T1, human CD115 extracellular domain (Sino …); assay: competition ELISA, competitor TMR 24A;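 also: clonal anti-huCD115 hybridoma supernatant antibodies bound with a competitor mouse antibody present, and failure to bind puts a clone in that competitor's epitope bin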

Binder | signal vs NO COMP=100 [%]
B1 | 131
B2 | 39
B3 | 0
B4 | -1
B5 | 99
B6 | 68
B7 | 94
B8 | 2
B9 | 27
B10 | 11
B11 | 29
B12 | 6
B13 | 18
B14 | 13
B15 | 13
B16 | 79

biological target: T1, human CD115 extracellular domain (Sino …); assay: competition ELISA, competitor TMR 35A;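 also: clonal hybridoma supernatant antibodies added to wells after the competitor mouse antibody, lost binding signal puts an antibody in that competitor's epitope bin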

Binder | signal vs NO COMP=100 [%]
B1 | 11
B2 | 82
B3 | 110
B4 | 54
B5 | 76
B6 | 82
B7 | 111
B8 | 66
B9 | 110
B10 | 111
B11 | 102
B12 | 110
B13 | 100
B14 | 78
B15 | 88
B16 | 96

biological target: T1, human CD115 extracellular domain (Sino …); assay: competition ELISA, competitor TMR 44B;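 also: binding of antibodies from single-clone hybridoma supernatants to huCD115 measured with the competitor antibody present, a drop in signal meaning both share an epitope bin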

Binder | signal vs NO COMP=100 [%]
B1 | 126
B2 | 10
B3 | 10
B4 | 28
B5 | 2
B6 | 3
B7 | 10
B8 | 17
B9 | 41
B10 | 31
B11 | 53
B12 | 19
B13 | 55
B14 | 110
B15 | 56
B16 | 75

biological target: T1, human CD115 extracellular domain (Sino …); assay: competition ELISA, competitor TMR 95A;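 also: clonal anti-huCD115 hybridoma supernatants tested for binding while a competitor mouse antibody is present, where failure to bind assigns them to that competitor's epitope bin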

Binder | signal vs NO COMP=100 [%]
B1 | 131
B2 | 20
B3 | 1
B4 | 0
B5 | 3
B6 | 9
B7 | 23
B8 | 6
B9 | 15
B10 | 6
B11 | 16
B12 | 3
B13 | 9
B14 | 3
B15 | 11
B16 | 86

biological target: T1, human CD115 extracellular domain (Sino …); assay: competition ELISA, competitor TMR 100A;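 also: clonal anti-huCD115 hybridoma supernatants tested for binding with the competitor antibody present, clones failing to bind are assigned to the competitor's epitope bin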

Binder | signal vs NO COMP=100 [%]
B1 | 147
B2 | 87
B3 | 111
B4 | 79
B5 | 91
B6 | 84
B7 | 76
B8 | 79
B9 | 110
B10 | 111
B11 | 98
B12 | 113
B13 | 99
B14 | 91
B15 | 100
B16 | 17
